Experimental data from patent publication US8263074B2, “Fibroblast growth factor receptor-1 inhibitors and methods of treatment thereof” (ImClone LLC, priority 2003, dated 2012).
Where two headings read alike, the source gives them in different places.

Experiments:
FGFR-2c = biological target: T1, FGFR-2c (Homo sapiens, UniProt P21802); experiment: BiaCore binding kinetics; conditions: BiaCore kinetic analysis
T1 construct: purchased R&D Systems

FGFR-1c = biological target: T2, FGFR-1c (Homo sapiens, UniProt P11362); experiment: BiaCore binding kinetics; conditions: kinetic analyses; read-out: KD, FGFR-1c
T2 construct: purchased R&D Systems

FGFR-3c = biological target: T3, FGFR-3c (Homo sapiens, UniProt P22607); experiment: BiaCore binding kinetics; conditions: BiaCore kinetic analysis
T3 construct: purchased R&D Systems

[1] = Repeated-dose study in female athymic nude mice: body weight, food intake, rearing, blood glucose; format: in vivo; conditions: for body weight loss compared to the control: day 5 after two treatments; for reduction of non-fast food intake: between first and second treatments
Description: Female athymic nude mice (Cr1:NU/NU-nuBR, Charles River Laboratories, Wilmington, Mass.) were housed 4-5 per cage. Mice were given autoclaved food (Lab Diet #5001, PMI Feeds Inc., St. Louis, Mo.) and water ad libitum. All animal use in this study was conducted in compliance with approved institutional animal care and use protocols, and according to NIH guidelines (Guide for the Care and Use of Laboratory Animals, NIH publication no. 86-23, 1985).
In one assay, mice were injected intraperitoneally (i.p.) with FR1-H7 at 0.19, 1.9, and 19 mg/kg body weight (n=5 per group). In another assay, mice were injected subcutaneously (s.c.) with the antibody, at 0.4, 4, and 40 mg/kg body weight. In control arms, mice were treated with saline i.p. or s.c. In addition, one group of mice was left untreated (n=4). All treatments were given at a volume of 10 μl/g body weight in Saline. Treatments were started on a Wednesday (Day 0) with additional treatments on the following Friday, Monday, Wednesday, and Friday. After this 9-day treatment period mice received no additional treatments.
Alternatively, female athymic nude mice were injected (i.p.) with saline, 2 mg/kg, or 20 mg/kg FR1-A1 on a Monday (Day 0) and Wednesday. Body weights were measured before the first injection, and on Day 2 and Day 5. Food intake per group was measured 2 days after the first injection.
The body weights of all animals were measured 3 times/week. Food consumption, behavior, and serum glucose were evaluated as follows. Food Intake Measurement: Prior to the treatment on Day 2 mice were placed in a new cage and the weight of the food container in the cage top was weighed. Prior to the treatment on Day 5 the weight of the food container was measured again. The difference in the Day 2 to Day 5 food container weight was divided by the number of mice per cage and the number of days between the measurements to give a food intake per mouse per 24 hrs. Activity Measurement: On Day 12, 3 days after the final treatment, mice were placed individually into a new cage and the number of rearings was counted over a 1 min period. Blood Glucose Measurement On Day 16, 7 days after the final treatment, non-fasted blood glucose was measured in blood collected from the tip of the tail using an Ascensia Elite XL blood glucose meter (glucose oxidase method, Bayer, Pittsburg, Pa.).

[2] = system: Human astrocytoma G18 cells; experiment: Mitogenesis assay (3H-thymidine); format: cell-based; conditions: FGF-2 stimulation
Description: Human astrocytoma G18 cells were seeded in 96-well tissue culture plates at a concentration of 5×10^4 cells/ml. After attachment, cells were quiesced for 24 hrs in RPMI media (Invitrogen) containing 0.1% FBS and 5 μg/ml heparin. Antibodies were serially diluted, added to the wells, and incubated with the cells at 37° C. for 1 hr. Recombinant FGF-2 was then added to a final concentration of 5 ng/ml. Cells were cultured in an incubator at 37° C. with 5% CO2. Cell growth was determined 24 hrs later by monitoring ^3H-thymidine incorporation as described previously.

FGFR-1b = biological target: T4, FGFR-1b (Homo sapiens, UniProt P11362); experiment: BiaCore binding kinetics; conditions: kinetic analyses
T4 construct: purchased R&D Systems

FGFR-3b = biological target: T5, FGFR-3b (Homo sapiens, UniProt P22607); experiment: BiaCore binding kinetics; conditions: BiaCore kinetic analysis
T5 construct: purchased R&D Systems

FGFR-2b = biological target: T6, FGFR-2b (Homo sapiens, UniProt P21802); experiment: BiaCore binding kinetics; conditions: BiaCore kinetic analysis
T6 construct: purchased R&D Systems

FGFR-1 = biological target: T7, FGFR-1 (Homo sapiens, UniProt P11362); experiment: Phosphorylation assay in FGFR-1 expressing L6 cells (western blot); format: cell-based; conditions: anti-phospho-tyrosine western blot
T7 construct: expressed in transfected cells; host or cells: L6 (ATCC), pBABE retroviral vector
Description: FGFR-1 expressing L6 cells were cultured in 10% FBS, DMEM, in a 24-well tissue culture plate till confluency. Cells were Serum starved in 5 μg/ml heparin, 0.1% FBS, DMEM, for 8-24 hrs. Either FR1-H7 or FR1-A1 was added to the media and allowed to bind with the cell surface receptors at 37° C. for 1 hr. Cells were then stimulated with 20 ng/ml FGFs at 37° C. for 10 min before they were lyzed using ice-cold lysis buffer for 30 min. Cell lysate was subjected to SDS-PAGE followed by western blot. Membranes were probed with anti-phospho-tyrosine antibody (Cell Signaling Technology, Inc., Beverly, Mass.) for detection of phosphorylated FGFR-1 receptors according to supplier's instructions.
The phosphorylation assay for small molecules is essentially the same as the phosphorylation assay described in Examples 7 and 15 and Phosphorylation Assay, except that small molecule compounds was used instead of FGFR-1 antibodies in all occasions. […] Equal amount of cell lysates were applied to each sample lane. Receptor auto-phosphorylation was probed using anti-phospho-tyrosine antibody as described in the original patent.

FGFR-1(IIIc) [3] = biological target: T8, FGFR-1(IIIc) (Homo sapiens, UniProt P11362); experiment: ELISA blocking assay (receptor binding to immobilized FGF); parameters: purchased R&D Systems
Description: Recombinant FGFs (R&D systems, Minneapolis, Minn.) were coated on Immulon® 2B microtiter plates (ThermoLab Systems, Franklin, Mass.) at concentrations of 0.5-2 μg/ml for 2 hrs. The plates were then washed with 0.2% Tween20/PBS, and blocked with 5% milk/PBS for 2 hrs before use. Phage or antibody was serially diluted with 5 μg/ml heparin (Sigma, St Louis, Mo.), 5% milk, PBS. Recombinant FGFR-1 (R&D Systems) was then added to a final concentration of 1 μg/ml. The mixture was incubated at room temperature for 1 hr before transfer to the FGF-2 coated plates, and incubated at room temperature for an additional 2 hrs. Plates were then washed 3 times with 0.2% Tween20/PBS. The bound receptors were detected using an anti-human Fc monoclonal antibody coupled with HRP (Pierce Biotechnology Inc., Rockford, Ill.) solution prepared according to supplier's instructions. Data were presented as % inhibition of ligand-receptor binding of the controls.

FGFR-4 = biological target: T9, FGFR-4 (Homo sapiens, UniProt P22455); experiment: ELISA binding assay
T9 construct: purchased R&D Systems
Description: (§1) Recombinant FGFRs (R&D systems) at a concentration of 1 μg/ml in PBS were coated on 96-well plates at room temperature for 2 hrs. The plates were washed 3 times with 0.2% Tween20/PBS, and blocked with 5% milk/PBS for 2 hrs before use. FR1-H7 or FR1-A1 was added to the plate and serially diluted in 0.2% Tween20/PBS. The plate was incubated at room temperature for 2 more hrs. The captured antibodies were detected using an anti-human light chain monoclonal antibody conjugated with […] (Pierce Biotechnology, Rockford, Ill.) solution prepared according to supplier's instructions.

other FGFRs = experiment: ELISA binding assay
Description: as §1

FGFR-1(IIIc) [4] = biological target: T8, FGFR-1(IIIc); experiment: ELISA binding assay; parameters: purchased R&D Systems
Description: as §1

T8 sequence (P11362 22-822): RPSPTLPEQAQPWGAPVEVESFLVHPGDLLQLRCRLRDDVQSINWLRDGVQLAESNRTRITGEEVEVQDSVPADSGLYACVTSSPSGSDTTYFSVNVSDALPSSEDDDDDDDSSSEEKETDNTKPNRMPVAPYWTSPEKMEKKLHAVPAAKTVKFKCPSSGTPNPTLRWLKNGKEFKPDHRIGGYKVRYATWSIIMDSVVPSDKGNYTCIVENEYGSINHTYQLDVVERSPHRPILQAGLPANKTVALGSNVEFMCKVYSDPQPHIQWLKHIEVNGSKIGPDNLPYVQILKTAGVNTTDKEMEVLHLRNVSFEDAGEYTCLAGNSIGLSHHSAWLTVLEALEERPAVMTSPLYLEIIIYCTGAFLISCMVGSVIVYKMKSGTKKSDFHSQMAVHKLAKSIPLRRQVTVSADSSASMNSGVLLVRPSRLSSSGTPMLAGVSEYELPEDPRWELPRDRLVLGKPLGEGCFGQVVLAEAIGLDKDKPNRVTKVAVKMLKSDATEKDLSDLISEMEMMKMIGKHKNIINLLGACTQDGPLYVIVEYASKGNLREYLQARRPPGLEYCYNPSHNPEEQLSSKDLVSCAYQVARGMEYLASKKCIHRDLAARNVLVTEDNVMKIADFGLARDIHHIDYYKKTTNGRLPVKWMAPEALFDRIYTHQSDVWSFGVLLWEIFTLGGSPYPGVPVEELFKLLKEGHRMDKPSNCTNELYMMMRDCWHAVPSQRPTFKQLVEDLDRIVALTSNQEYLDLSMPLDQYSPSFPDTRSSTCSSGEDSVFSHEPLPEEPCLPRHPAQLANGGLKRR
T7 sequence (P11362 22-822): as above
T4 sequence (P11362 22-822 isoform P11362-19 limits assumed): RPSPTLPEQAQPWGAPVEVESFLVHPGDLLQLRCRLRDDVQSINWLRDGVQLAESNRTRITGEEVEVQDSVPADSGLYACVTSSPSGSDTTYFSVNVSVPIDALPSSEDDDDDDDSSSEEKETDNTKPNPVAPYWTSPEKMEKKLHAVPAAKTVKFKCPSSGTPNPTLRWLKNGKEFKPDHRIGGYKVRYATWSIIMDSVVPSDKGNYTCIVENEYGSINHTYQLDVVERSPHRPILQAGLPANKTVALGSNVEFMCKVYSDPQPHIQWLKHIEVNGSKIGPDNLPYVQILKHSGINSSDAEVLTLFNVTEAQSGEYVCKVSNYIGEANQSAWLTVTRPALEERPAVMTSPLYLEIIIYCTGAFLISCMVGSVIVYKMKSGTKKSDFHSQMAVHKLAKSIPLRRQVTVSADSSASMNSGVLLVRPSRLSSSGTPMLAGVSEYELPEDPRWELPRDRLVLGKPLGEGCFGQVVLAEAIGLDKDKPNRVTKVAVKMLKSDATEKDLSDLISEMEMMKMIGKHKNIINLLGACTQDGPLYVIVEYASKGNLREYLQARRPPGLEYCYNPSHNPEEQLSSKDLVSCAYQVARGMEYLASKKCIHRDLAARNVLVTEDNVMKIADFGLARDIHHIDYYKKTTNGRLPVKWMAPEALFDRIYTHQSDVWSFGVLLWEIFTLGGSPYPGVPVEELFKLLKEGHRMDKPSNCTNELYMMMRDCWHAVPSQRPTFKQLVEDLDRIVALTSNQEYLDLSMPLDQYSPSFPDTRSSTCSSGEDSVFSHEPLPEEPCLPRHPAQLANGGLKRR
T2 sequence (P11362 22-822): as the sequence (P11362 22-822) above
T9 sequence (P22455 22-802): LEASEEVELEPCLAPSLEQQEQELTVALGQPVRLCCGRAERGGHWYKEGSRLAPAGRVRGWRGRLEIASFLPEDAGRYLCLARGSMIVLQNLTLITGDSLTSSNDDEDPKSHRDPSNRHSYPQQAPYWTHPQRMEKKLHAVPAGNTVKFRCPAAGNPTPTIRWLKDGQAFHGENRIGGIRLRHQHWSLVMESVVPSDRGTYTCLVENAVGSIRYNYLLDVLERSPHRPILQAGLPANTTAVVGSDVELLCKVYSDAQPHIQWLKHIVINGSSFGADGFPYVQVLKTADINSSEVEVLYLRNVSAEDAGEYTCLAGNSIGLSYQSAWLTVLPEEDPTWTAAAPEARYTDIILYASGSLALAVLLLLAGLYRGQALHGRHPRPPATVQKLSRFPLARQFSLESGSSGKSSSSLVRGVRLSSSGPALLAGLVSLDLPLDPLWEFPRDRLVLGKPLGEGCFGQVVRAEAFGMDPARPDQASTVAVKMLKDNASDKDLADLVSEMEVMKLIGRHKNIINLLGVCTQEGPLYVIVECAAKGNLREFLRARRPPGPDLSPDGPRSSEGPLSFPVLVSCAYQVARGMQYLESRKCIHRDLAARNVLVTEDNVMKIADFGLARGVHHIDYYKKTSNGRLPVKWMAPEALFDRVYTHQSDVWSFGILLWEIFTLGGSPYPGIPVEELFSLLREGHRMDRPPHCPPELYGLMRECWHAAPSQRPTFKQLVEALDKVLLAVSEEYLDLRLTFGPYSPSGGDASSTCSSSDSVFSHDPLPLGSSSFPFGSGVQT
T3 sequence (P22607 23-806): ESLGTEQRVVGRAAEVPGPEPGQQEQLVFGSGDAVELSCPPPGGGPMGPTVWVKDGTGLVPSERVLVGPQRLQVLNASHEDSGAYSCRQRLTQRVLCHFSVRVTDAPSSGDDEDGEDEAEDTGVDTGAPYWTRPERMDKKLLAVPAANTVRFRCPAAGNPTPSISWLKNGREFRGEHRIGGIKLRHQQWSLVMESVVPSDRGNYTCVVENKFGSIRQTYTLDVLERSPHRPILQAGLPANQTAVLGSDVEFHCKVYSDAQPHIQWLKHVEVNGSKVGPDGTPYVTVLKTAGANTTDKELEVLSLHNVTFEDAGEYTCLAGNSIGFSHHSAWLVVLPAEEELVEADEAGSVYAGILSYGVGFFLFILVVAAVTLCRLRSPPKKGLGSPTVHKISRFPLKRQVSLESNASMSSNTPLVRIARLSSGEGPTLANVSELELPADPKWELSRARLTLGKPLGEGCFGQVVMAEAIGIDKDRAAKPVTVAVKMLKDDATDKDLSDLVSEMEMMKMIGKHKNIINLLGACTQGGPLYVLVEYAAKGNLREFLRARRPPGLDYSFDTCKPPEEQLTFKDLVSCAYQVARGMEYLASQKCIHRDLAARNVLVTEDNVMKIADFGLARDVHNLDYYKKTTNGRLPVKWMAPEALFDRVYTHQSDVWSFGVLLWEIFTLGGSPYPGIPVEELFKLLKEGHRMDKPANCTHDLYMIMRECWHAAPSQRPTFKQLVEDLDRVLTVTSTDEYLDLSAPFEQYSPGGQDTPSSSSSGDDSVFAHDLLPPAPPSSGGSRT
T5 sequence (P22607 23-808 isoform P22607-2 limits assumed): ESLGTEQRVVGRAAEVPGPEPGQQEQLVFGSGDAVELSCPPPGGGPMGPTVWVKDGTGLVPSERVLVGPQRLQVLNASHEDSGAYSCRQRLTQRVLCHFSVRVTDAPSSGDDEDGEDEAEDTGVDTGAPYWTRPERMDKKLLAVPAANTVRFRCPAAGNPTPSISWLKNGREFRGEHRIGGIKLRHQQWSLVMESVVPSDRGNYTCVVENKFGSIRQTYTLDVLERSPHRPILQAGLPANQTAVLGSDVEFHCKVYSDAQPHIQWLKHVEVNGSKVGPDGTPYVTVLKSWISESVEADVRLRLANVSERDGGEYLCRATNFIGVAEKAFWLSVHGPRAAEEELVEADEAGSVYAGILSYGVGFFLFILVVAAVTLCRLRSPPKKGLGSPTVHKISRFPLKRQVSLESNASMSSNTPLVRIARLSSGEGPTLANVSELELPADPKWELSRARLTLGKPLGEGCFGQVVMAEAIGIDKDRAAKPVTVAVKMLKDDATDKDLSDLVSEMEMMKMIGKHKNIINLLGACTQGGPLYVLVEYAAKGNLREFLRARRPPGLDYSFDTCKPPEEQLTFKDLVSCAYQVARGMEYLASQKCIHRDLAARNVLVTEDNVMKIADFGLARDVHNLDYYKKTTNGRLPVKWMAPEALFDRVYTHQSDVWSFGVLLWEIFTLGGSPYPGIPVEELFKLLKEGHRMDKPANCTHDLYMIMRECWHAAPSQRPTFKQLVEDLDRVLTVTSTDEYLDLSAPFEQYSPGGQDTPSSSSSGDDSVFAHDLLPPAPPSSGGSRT
T6 sequence (P21802 22-822 isoform P21802-3 limits assumed): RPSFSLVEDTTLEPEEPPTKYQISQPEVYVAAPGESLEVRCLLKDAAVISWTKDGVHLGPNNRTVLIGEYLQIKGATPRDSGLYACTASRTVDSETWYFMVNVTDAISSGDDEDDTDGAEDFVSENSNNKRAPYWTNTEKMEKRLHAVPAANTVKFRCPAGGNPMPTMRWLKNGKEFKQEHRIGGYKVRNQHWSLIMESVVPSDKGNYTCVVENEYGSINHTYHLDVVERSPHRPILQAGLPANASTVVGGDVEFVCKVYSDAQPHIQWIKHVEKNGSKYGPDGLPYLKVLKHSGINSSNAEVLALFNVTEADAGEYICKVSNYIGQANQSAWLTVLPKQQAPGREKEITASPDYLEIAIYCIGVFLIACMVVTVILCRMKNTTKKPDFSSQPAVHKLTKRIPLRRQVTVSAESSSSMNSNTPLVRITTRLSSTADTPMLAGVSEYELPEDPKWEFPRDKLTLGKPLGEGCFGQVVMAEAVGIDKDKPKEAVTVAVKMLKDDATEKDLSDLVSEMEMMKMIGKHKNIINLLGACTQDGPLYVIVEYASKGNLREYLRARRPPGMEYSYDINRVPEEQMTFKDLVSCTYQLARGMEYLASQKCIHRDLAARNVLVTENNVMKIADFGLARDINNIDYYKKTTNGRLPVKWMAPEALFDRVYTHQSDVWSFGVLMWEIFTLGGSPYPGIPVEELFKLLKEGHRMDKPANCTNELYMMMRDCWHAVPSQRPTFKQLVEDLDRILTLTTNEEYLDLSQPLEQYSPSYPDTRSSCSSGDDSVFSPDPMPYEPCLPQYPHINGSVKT

B1: FR1-A1: antibody specific for FGFR-1(IIIc) and/or FGFR-4(IIIc); VH/VL SEQ ID NOS:15, 16 (antibody, listed as Homo sapiens, V domains shown)
VH: MAQVQLVQSGAEVKKPGSSVKVSCKASGQTFTGYYMHWVRQAPGQGLEWMGRIIPILGIANYAQKFQGRVTITADKSTSTAYMELSSLRSEDTAVYYCARGGDLGGMDVWGQG
VL: LEIVLTQSPLSLPVTPGEPASISCRSSQSLRHSNGYNYLDWYLQKPGQSPQLLIYLASNRASGVPDRFSGSGSGTDFTLKISRVEAEDVGVYYCMQALQIPPTFGPGTKVDIKRTVAA
FGFR-2c
  Kd: > 10000 nM
FGFR-1c
  Kd: 0.7 nM
FGFR-3c
  Kd: > 10000 nM
[1]; 2 mg/kg i.p.
  body weight loss compared to the control: ~9%
[1]; 2 mg/kg
  reduction of non-fast food intake: ~14%
[1]; 20 mg/kg i.p.
  body weight loss compared to the control: ~23%
[1]; 20 mg/kg
  reduction of non-fast food intake: ~44%
[2]
  FGF-2 stimulated DNA synthesis (mitogenesis) of G18 cells: decreased this stimulation in a dose-dependant manner
FGFR-1b
  Kd: > 10000 nM
FGFR-3b
  Kd: > 10000 nM
FGFR-2b
  Kd: > 10000 nM
FGFR-1; antibody
  inhibition of ligand (FGF) mediated receptor phosphorylation: significantly inhibits
FGFR-1; no ligand
  receptor activation by the antibody by itself: does not activated the receptor
FGFR-1(IIIc) [3]; immobilized FGF-1, read-out: IC50, blocking FGFR-1(IIIc) binding to FGF-1
  IC50: ~5 nM
FGFR-1(IIIc) [3]; immobilized FGF-2, read-out: IC50, blocking FGFR-1(IIIc) binding to FGF-2
  IC50: ~10 nM
FGFR-4
  binding to FGFR-4: moderate affinity
Other FGFRs
  binding to the other FGFRs: little binding
FGFR-1(IIIc) [4]
  binding to FGFR-1(IIIc): strong binding affinity
